Source: US20070219354A1

Biological target: 2081/anti-NF IgG, polyclonal antibody generated against the SEVNF peptide
Experiment: ORIGEN ECL competition against biotinylated-SEVNF; reference SEVNF

fold less effective in competition than SEVNF: 100 fold
B1: SEVNL peptide (peptide)
peptide: SEVNL
